Source: patent publication US20250283129A1, “PROCESS” (Sun Pharmaceutical Industries Australia Pty Limited, priority 2021, published 2025)
Read-outs that look alike come from different tables or passages of the source.

Tests used:
thebaine = experiment: Whole cell biotransformation of thebaine to oripavine by E. coli cells expressing CODM variants; type: cell-based; conditions: for average thebaine to oripavine yield: FIG. 5; for oripavine yield improved relative to WT CODM: oripavine yield assayed after 4 hours
codeine = experiment: Whole cell biotransformation of codeine to morphine by E. coli cells expressing CODM variants; type: cell-based; conditions: for average codeine to morphine yield: FIG. 5, morphine assayed after 30 minutes per legend; for morphine yield improved relative to WT CODM: morphine yield assayed after 30 minutes; for speed of biotransformation with codeine as substrate (in words): time course over two hours
[1] = morphine after 30 minutes, oripavine after 4 hours

B1: 17M: codeine 3-O-demethylase with amino acid substitution I7M (protein, listed as Papaver somniferum)
chain: METPILMKLGNGLSIPSVQELAKLTLAEIPSRYTCTGESPLNNIGASVTDDETVPVIDLQNLLSPEPVVGKLELDKLHSACKEWGFFQLVNHGVDALLMDNIKSEIKGFFNLPMNEKTKYGQQDGDFEGFGQPYIESEDQRLDWTEVFSMLSLPLHLRKPHLFPELPLPFRETLESYLSKMKKLSTVVFEMLEKSLQLVEIKGMTDLFEDGLQTMRMNYYPPCPRPELVLGLTSHSDFSGLTILLQLNEVEGLQIRKEERWISIKPLPDAFIVNVGDILEIMTNGIYRSVEHRAVVNSTKERLSIATFHDSKLESEIGPISSLVTPETPALFKRGRYEDILKENLSRKLDGKSFLDYMRM
thebaine; after 4 hours
  average thebaine to oripavine yield: 6%
codeine
  average codeine to morphine yield: 32%

B2: T3K: codeine 3-O-demethylase with amino acid substitution T3K (protein, listed as Papaver somniferum)
chain: MEKPILIKLGNGLSIPSVQELAKLTLAEIPSRYTCTGESPLNNIGASVTDDETVPVIDLQNLLSPEPVVGKLELDKLHSACKEWGFFQLVNHGVDALLMDNIKSEIKGFFNLPMNEKTKYGQQDGDFEGFGQPYIESEDQRLDWTEVFSMLSLPLHLRKPHLFPELPLPFRETLESYLSKMKKLSTVVFEMLEKSLQLVEIKGMTDLFEDGLQTMRMNYYPPCPRPELVLGLTSHSDFSGLTILLQLNEVEGLQIRKEERWISIKPLPDAFIVNVGDILEIMTNGIYRSVEHRAVVNSTKERLSIATFHDSKLESEIGPISSLVTPETPALFKRGRYEDILKENLSRKLDGKSFLDYMRM
thebaine; [1]
  product yield / performance compared to WT CODM strain (in words): minor improvement in product yield

B3: E259G: codeine 3-O-demethylase with amino acid substitution E259G (protein, listed as Papaver somniferum)
chain: METPILIKLGNGLSIPSVQELAKLTLAEIPSRYTCTGESPLNNIGASVTDDETVPVIDLQNLLSPEPVVGKLELDKLHSACKEWGFFQLVNHGVDALLMDNIKSEIKGFFNLPMNEKTKYGQQDGDFEGFGQPYIESEDQRLDWTEVFSMLSLPLHLRKPHLFPELPLPFRETLESYLSKMKKLSTVVFEMLEKSLQLVEIKGMTDLFEDGLQTMRMNYYPPCPRPELVLGLTSHSDFSGLTILLQLNEVEGLQIRKEGRWISIKPLPDAFIVNVGDILEIMTNGIYRSVEHRAVVNSTKERLSIATFHDSKLESEIGPISSLVTPETPALFKRGRYEDILKENLSRKLDGKSFLDYMRM
thebaine
  oripavine yield improved relative to WT CODM: ~27%
codeine
  morphine yield improved relative to WT CODM: ~24%

B4: E259G+R260K: codeine 3-O-demethylase with amino acid substitutions E259G and R260K (protein, listed as Papaver somniferum)
chain: METPILIKLGNGLSIPSVQELAKLTLAEIPSRYTCTGESPLNNIGASVTDDETVPVIDLQNLLSPEPVVGKLELDKLHSACKEWGFFQLVNHGVDALLMDNIKSEIKGFFNLPMNEKTKYGQQDGDFEGFGQPYIESEDQRLDWTEVFSMLSLPLHLRKPHLFPELPLPFRETLESYLSKMKKLSTVVFEMLEKSLQLVEIKGMTDLFEDGLQTMRMNYYPPCPRPELVLGLTSHSDFSGLTILLQLNEVEGLQIRKEGKWISIKPLPDAFIVNVGDILEIMTNGIYRSVEHRAVVNSTKERLSIATFHDSKLESEIGPISSLVTPETPALFKRGRYEDILKENLSRKLDGKSFLDYMRM
thebaine
  product yield / performance compared to WT CODM strain (in words): improved compared to the WT CODM stain

B5: WT CODM: wild type codeine 3-O-demethylase (UniProtKB: D4N502), N-terminally fused to 6H and MBP, expressed in E. coli (protein, UniProt D4N502 1-360, looked up)
Codeine O-demethylase: METPILIKLGNGLSIPSVQELAKLTLAEIPSRYTCTGESPLNNIGASVTDDETVPVIDLQNLLSPEPVVGKLELDKLHSACKEWGFFQLVNHGVDALLMDNIKSEIKGFFNLPMNEKTKYGQQDGDFEGFGQPYIESEDQRLDWTEVFSMLSLPLHLRKPHLFPELPLPFRETLESYLSKMKKLSTVVFEMLEKSLQLVEIKGMTDLFEDGLQTMRMNYYPPCPRPELVLGLTSHSDFSGLTILLQLNEVEGLQIRKEERWISIKPLPDAFIVNVGDILEIMTNGIYRSVEHRAVVNSTKERLSIATFHDSKLESEIGPISSLVTPETPALFKRGRYEDILKENLSRKLDGKSFLDYMRM
modifications: N-terminal His6-MBP fusion
notes: wild type codeine 3-O-demethylase (UniProtKB: D4N502), N-terminally fused to 6H and MBP, expressed in E. coli
thebaine; after 4 hours
  average thebaine to oripavine yield: 47%
codeine
  average codeine to morphine yield: 47%

B6: E259D+R260K: codeine 3-O-demethylase with amino acid substitutions E259D and R260K (protein, listed as Papaver somniferum)
chain: METPILIKLGNGLSIPSVQELAKLTLAEIPSRYTCTGESPLNNIGASVTDDETVPVIDLQNLLSPEPVVGKLELDKLHSACKEWGFFQLVNHGVDALLMDNIKSEIKGFFNLPMNEKTKYGQQDGDFEGFGQPYIESEDQRLDWTEVFSMLSLPLHLRKPHLFPELPLPFRETLESYLSKMKKLSTVVFEMLEKSLQLVEIKGMTDLFEDGLQTMRMNYYPPCPRPELVLGLTSHSDFSGLTILLQLNEVEGLQIRKEDKWISIKPLPDAFIVNVGDILEIMTNGIYRSVEHRAVVNSTKERLSIATFHDSKLESEIGPISSLVTPETPALFKRGRYEDILKENLSRKLDGKSFLDYMRM
thebaine; [1]
  product yield / performance compared to WT CODM strain (in words): improved compared to the WT CODM stain

B7: E259D: codeine 3-O-demethylase with amino acid substitution E259D (protein, listed as Papaver somniferum)
chain: METPILIKLGNGLSIPSVQELAKLTLAEIPSRYTCTGESPLNNIGASVTDDETVPVIDLQNLLSPEPVVGKLELDKLHSACKEWGFFQLVNHGVDALLMDNIKSEIKGFFNLPMNEKTKYGQQDGDFEGFGQPYIESEDQRLDWTEVFSMLSLPLHLRKPHLFPELPLPFRETLESYLSKMKKLSTVVFEMLEKSLQLVEIKGMTDLFEDGLQTMRMNYYPPCPRPELVLGLTSHSDFSGLTILLQLNEVEGLQIRKEDRWISIKPLPDAFIVNVGDILEIMTNGIYRSVEHRAVVNSTKERLSIATFHDSKLESEIGPISSLVTPETPALFKRGRYEDILKENLSRKLDGKSFLDYMRM
thebaine
  oripavine yield improved relative to WT CODM: ~38%
codeine
  morphine yield improved relative to WT CODM: ~30%

B8: P4A: codeine 3-O-demethylase with amino acid substitution P4A (protein, listed as Papaver somniferum)
chain: METAILIKLGNGLSIPSVQELAKLTLAEIPSRYTCTGESPLNNIGASVTDDETVPVIDLQNLLSPEPVVGKLELDKLHSACKEWGFFQLVNHGVDALLMDNIKSEIKGFFNLPMNEKTKYGQQDGDFEGFGQPYIESEDQRLDWTEVFSMLSLPLHLRKPHLFPELPLPFRETLESYLSKMKKLSTVVFEMLEKSLQLVEIKGMTDLFEDGLQTMRMNYYPPCPRPELVLGLTSHSDFSGLTILLQLNEVEGLQIRKEERWISIKPLPDAFIVNVGDILEIMTNGIYRSVEHRAVVNSTKERLSIATFHDSKLESEIGPISSLVTPETPALFKRGRYEDILKENLSRKLDGKSFLDYMRM
thebaine; [1]
  product yield / performance compared to WT CODM strain (in words): minor improvement in product yield

B9: R260T: codeine 3-O-demethylase with amino acid substitution R260T (protein, listed as Papaver somniferum)
chain: METPILIKLGNGLSIPSVQELAKLTLAEIPSRYTCTGESPLNNIGASVTDDETVPVIDLQNLLSPEPVVGKLELDKLHSACKEWGFFQLVNHGVDALLMDNIKSEIKGFFNLPMNEKTKYGQQDGDFEGFGQPYIESEDQRLDWTEVFSMLSLPLHLRKPHLFPELPLPFRETLESYLSKMKKLSTVVFEMLEKSLQLVEIKGMTDLFEDGLQTMRMNYYPPCPRPELVLGLTSHSDFSGLTILLQLNEVEGLQIRKEETWISIKPLPDAFIVNVGDILEIMTNGIYRSVEHRAVVNSTKERLSIATFHDSKLESEIGPISSLVTPETPALFKRGRYEDILKENLSRKLDGKSFLDYMRM
thebaine; after 4 hours
  less oripavine generated than WT CODM: ~29%
codeine; after 30 minutes
  less morphine generated than WT CODM: ~28%

B10: 15K: codeine 3-O-demethylase with amino acid substitution I5K (protein, listed as Papaver somniferum)
chain: METPKLIKLGNGLSIPSVQELAKLTLAEIPSRYTCTGESPLNNIGASVTDDETVPVIDLQNLLSPEPVVGKLELDKLHSACKEWGFFQLVNHGVDALLMDNIKSEIKGFFNLPMNEKTKYGQQDGDFEGFGQPYIESEDQRLDWTEVFSMLSLPLHLRKPHLFPELPLPFRETLESYLSKMKKLSTVVFEMLEKSLQLVEIKGMTDLFEDGLQTMRMNYYPPCPRPELVLGLTSHSDFSGLTILLQLNEVEGLQIRKEERWISIKPLPDAFIVNVGDILEIMTNGIYRSVEHRAVVNSTKERLSIATFHDSKLESEIGPISSLVTPETPALFKRGRYEDILKENLSRKLDGKSFLDYMRM
thebaine
  oripavine yield improved relative to WT CODM: ~79%
codeine
  morphine yield improved relative to WT CODM: ~58%
  speed of biotransformation with codeine as substrate (in words): faster than the WT CODM control
codeine; time course, after one hour
  yield of morphine: ~94%

B11: M360I: codeine 3-O-demethylase with amino acid substitution M360I (protein, listed as Papaver somniferum)
chain: METPILIKLGNGLSIPSVQELAKLTLAEIPSRYTCTGESPLNNIGASVTDDETVPVIDLQNLLSPEPVVGKLELDKLHSACKEWGFFQLVNHGVDALLMDNIKSEIKGFFNLPMNEKTKYGQQDGDFEGFGQPYIESEDQRLDWTEVFSMLSLPLHLRKPHLFPELPLPFRETLESYLSKMKKLSTVVFEMLEKSLQLVEIKGMTDLFEDGLQTMRMNYYPPCPRPELVLGLTSHSDFSGLTILLQLNEVEGLQIRKEERWISIKPLPDAFIVNVGDILEIMTNGIYRSVEHRAVVNSTKERLSIATFHDSKLESEIGPISSLVTPETPALFKRGRYEDILKENLSRKLDGKSFLDYMRI
thebaine
  oripavine yield improved relative to WT CODM: ~33%
codeine
  morphine yield improved relative to WT CODM: ~29%
  speed of biotransformation with codeine as substrate (in words): faster than the WT CODM control but not as fast as the other two mutant strains
